# Reference: patent US20220177587A1, “METHODS AND USES OF VARIANT CD80 FUSION PROTEINS AND RELATED CONSTRUCTS” (Alpine Immune Sciences, Inc., priority 2018, published 2022)
# Positions count from the first letter of the chain named. Names may count otherwise.
# B1: variant CD80 IgV-Fc Q33L/E35D/M47I/L85Q (Fc fusion)
# chain: VIHVTKEVKEVATLSCGHNVSVEELAQTRIYWLKDKKMVLTMMSGDINIWPEYKNRTIFDITNNLSIVILALRPSDEGTYECVVQKYEKDAFKREHLAEVTLSVKAD
# B2: variant CD80 IgV-Fc Q27H/Q33L/E35D/M47V/N55D/L85Q/K89N (Fc fusion)
# chain: B1 chain with Q27H, I47V, N55D, K89N
# B3: variant CD80 IgV-Fc Y31S/E35D/M47L/T79L/E88G (Fc fusion)
# chain: B1 chain with Y31S, L33Q, I47L, T79L, Q85L, E88G
# B4: variant CD80 IgV-Fc V22A/E23D/Q33L/E35D/M47V (Fc fusion)
# chain: B1 chain with V22A, E23D, I47V, Q85L
# B5: variant CD80 IgV-Fc Q33L/E35D/M47L/V68M/L85Q/E88D (Fc fusion)
# chain: B1 chain with I47L, V68M, E88D
# B6: variant CD80 IgV-Fc H18Y/V20A/Q33L/E35D/M47V/Y53F (Fc fusion)
# chain: B1 chain with H18Y, V20A, I47V, Y53F, Q85L
# B7: variant CD80 IgV-Fc Q33L/E35D/M47I/T62N/L85Q (Fc fusion)
# chain: B1 chain with T62N
# B8: variant CD80 IgV-Fc H18L/V22A/E35D/M47L/N48T/L85Q (Fc fusion)
# chain: B1 chain with H18L, V22A, L33Q, I47L, N48T
# B9: variant CD80 IgV-Fc Q33L/E35D/T41S/M43I (Fc fusion)
# chain: B1 chain with T41S, M43I, I47M, Q85L
# B10: variant CD80 IgV-Fc Q33L/E35D/M47L/A71G/F92S (Fc fusion)
# chain: B1 chain with I47L, A71G, Q85L, F92S
# B11: variant CD80 IgV-Fc E35D/M47I/E77A/L85Q/R94W (Fc fusion)
# chain: B1 chain with L33Q, E77A, R94W
# B12: variant CD80 IgV-Fc E7D/E35D/M47I/L97Q (Fc fusion)
# chain: B1 chain with E7D, L33Q, Q85L, L97Q
# B13: variant CD80 IgV-Fc Q33L/E35D/M43I/L85Q/R94W (Fc fusion)
# chain: B1 chain with M43I, I47M, R94W
# B14: variant CD80 IgV-Fc E35D/M47V/A71G/L85M/L97Q (Fc fusion)
# chain: B1 chain with L33Q, I47V, A71G, Q85M, L97Q
# B15: variant CD80 IgV-Fc Q33L/E35D/M47V/L85Q (Fc fusion)
# chain: B1 chain with I47V
# B16: variant CD80 IgV-Fc V22A/R29H/E35D/D46E/M47I (Fc fusion)
# chain: B1 chain with V22A, R29H, L33Q, D46E, Q85L
# B17: variant CD80 IgV-Fc Q33L/E35D/M43V/M47I/A71G (Fc fusion)
# chain: B1 chain with M43V, A71G, Q85L
# B18: variant CD80 IgV-Fc H18Y/E35D/V68M/L97Q (Fc fusion)
# chain: B1 chain with H18Y, L33Q, I47M, V68M, Q85L, L97Q
# B19: variant CD80 IgV-Fc A26E/E35D/M43T/M47L/L85Q/R94Q (Fc fusion)
# chain: B1 chain with A26E, L33Q, M43T, I47L, R94Q
# B20: variant CD80 IgV-Fc H18Y/Y31H/E35D/M47V/A71G/L85Q (Fc fusion)
# chain: B1 chain with H18Y, Y31H, L33Q, I47V, A71G
# B21: variant CD80 IgV-Fc Q33K/E35D/D46V/L85Q (Fc fusion)
# chain: B1 chain with L33K, D46V, I47M
# Target: human PD-L1 (human) (UniProt Q9NZQ7)
# Sequence (Q9NZQ7 19-290): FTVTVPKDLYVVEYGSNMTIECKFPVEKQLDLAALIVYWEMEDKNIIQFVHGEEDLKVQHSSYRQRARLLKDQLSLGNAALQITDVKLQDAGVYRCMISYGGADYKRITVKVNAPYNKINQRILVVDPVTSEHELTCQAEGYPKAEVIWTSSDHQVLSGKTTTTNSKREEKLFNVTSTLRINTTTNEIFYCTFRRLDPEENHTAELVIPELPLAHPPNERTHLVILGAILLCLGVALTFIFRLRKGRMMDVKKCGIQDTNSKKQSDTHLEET
# Assay: flow cytometry, CHO cells expressing huPD-L1; MFI ratio to WT CD80 ECD-Fc (R&D)
row,Binder,Fold change to WT [fold]
1,B1,8.05
2,B2,1.86
3,B3,4.9
4,B4,9.51
5,B5,15.8
6,B6,15.2
7,B7,9.14
8,B8,12.3
9,B9,5.66
10,B10,3.53
11,B11,8.12
12,B12,1.84
13,B13,3.65
14,B14,7.77
15,B15,5.97
16,B16,3.2
17,B17,9.82
18,B18,15.3
19,B19,8.57
20,B20,9.61
21,B21,3.36

# Target: human CTLA-4 (human) (UniProt P16410)
# Sequence (P16410 36-223): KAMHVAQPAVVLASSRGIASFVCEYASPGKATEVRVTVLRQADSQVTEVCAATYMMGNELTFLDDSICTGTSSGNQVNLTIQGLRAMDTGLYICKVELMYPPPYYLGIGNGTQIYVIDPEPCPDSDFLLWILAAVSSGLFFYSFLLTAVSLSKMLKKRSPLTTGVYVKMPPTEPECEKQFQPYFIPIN
# Assay: flow cytometry, CHO cells expressing huCTLA4; MFI ratio to WT CD80 ECD-Fc (R&D)
row,Binder,Fold change to WT CD80 [fold]
1,B1,0.11
2,B2,0.31
3,B3,0.01
4,B4,0.02
5,B5,0.02
6,B6,0.02
7,B7,0.01
8,B8,2.09
9,B9,0.04
10,B10,0.01
11,B11,1.38
12,B12,1.52
13,B13,0.01
14,B14,1.34
15,B15,0.42
16,B16,0.43
17,B17,0.08
18,B18,0.97
19,B19,1.56
20,B20,0.02
21,B21,0.05

# Target: human PD-L1 (human) (UniProt Q9NZQ7)
# Assay: flow cytometry, CHO cells expressing huPD-L1
row,Binder,MFI at 33.3 nM [MFI]
1,B1,63900
2,B2,14800
3,B3,38900
4,B4,75500
5,B5,126000
6,B6,121000
7,B7,72600
8,B8,98100
9,B9,44900
10,B10,28000
11,B11,64500
12,B12,14600
13,B13,29000
14,B14,61700
15,B15,47400
16,B16,25400
17,B17,78000
18,B18,122000
19,B19,68100
20,B20,76400
21,B21,26700

# Target: human CTLA-4 (human) (UniProt P16410)
# Assay: flow cytometry, CHO cells expressing huCTLA4
row,Binder,MFI at 33.3 nM [MFI]
1,B1,20500
2,B2,56100
3,B3,1100
4,B4,3640
5,B5,3530
6,B6,2880
7,B7,1660
8,B8,374000
9,B9,6390
10,B10,2110
11,B11,247000
12,B12,271000
13,B13,1080
14,B14,239000
15,B15,75400
16,B16,77400
17,B17,14000
18,B18,173000
19,B19,278000
20,B20,3840
21,B21,8510

# Target: CD28 (human) (UniProt P10747)
# Assay: flow cytometry, Jurkat/IL2 reporter cells (endogenous CD28); MFI ratio to WT CD80 ECD-Fc (R&D)
row,Binder,Fold change to WT [fold]
1,B1,0.04
2,B2,0.04
3,B3,0.04
4,B4,0.04
5,B5,0.03
6,B6,0.03
7,B7,0.04
8,B8,0.06
9,B9,0.06
10,B10,0.05
11,B11,0.04
12,B12,0.04
13,B13,0.04
14,B14,0.04
15,B15,0.04
16,B16,0.04
17,B17,0.04
18,B18,0.04
19,B19,0.03
20,B20,0.04
21,B21,0.03

# Target: human PD-L1 (human) (UniProt Q9NZQ7)
# Assay: flow cytometry; binding to PD-L1 cells against binding of the same variant to CD28 cells
row,Binder,Ratio of PDL1:CD28
1,B1,222
2,B2,55
3,B3,140
4,B4,275
5,B5,476
6,B6,463
7,B7,256
8,B8,226
9,B9,104
10,B10,77
11,B11,238
12,B12,54
13,B13,107
14,B14,182
15,B15,177
16,B16,79
17,B17,275
18,B18,407
19,B19,262
20,B20,285
21,B21,104

# Target: CD28 (human) (UniProt P10747)
# Assay: flow cytometry, Jurkat/IL2 reporter cells (endogenous CD28)
row,Binder,MFI at 33.3 nM [MFI]
1,B1,287
2,B2,269
3,B3,278
4,B4,274
5,B5,264
6,B6,260
7,B7,284
8,B8,434
9,B9,433
10,B10,366
11,B11,272
12,B12,273
13,B13,272
14,B14,339
15,B15,268
16,B16,323
17,B17,284
18,B18,299
19,B19,260
20,B20,268
21,B21,257
